Data as given in patent US7998940B2, “Aptamers to von Willebrand factor and their use as thrombotic disease therapeutics” (Archemix Corp., priority 2004, dated 2011).
Several values for one entry are separate records, joined by “and”; a condition that tells them apart may be missing. Equal values may be shown once. Read-outs that look alike come from different tables or passages of the source. Oligonucleotides are written 5' to 3', each unit as a sugar letter and its base; * is a phosphorothioate linkage, no mark a phosphodiester; rarer units and linkages stand in square brackets, end groups in braces. Plain capitals give the bases only. [invdT] = inverted (3'-3') thymidine; d = 2'-deoxy (DNA); m = 2'-O-methyl; r = 2'-OH (RNA); f = 2'-fluoro

Experiments:
[1] = pharmacokinetics after 3 mg/kg IV in cynomolgus macaques (Oligreen, HPLC); type: in vivo
Method: ARC1368 (SEQ ID NO 291), 1779 (SEQ ID NO 320) and 1780 (SEQ ID NO 321) (as described in Example 2 above) were injected intravenously into cynomolgus macaques (n=3/group) at a dosage of 3 mg/kg which was expected to yield an instantaneous plasma concentration of 3 uM, approximately 30-fold higher than the putative effective dose. Subsequently, citrated blood samples were collected at regular intervals and processed for plasma.
Subsequently, plasma aptamer concentrations were determined using the Oligreen assay (Gray et al., Antisense and Nucleic Acid Drug Development 7 (3):133-140 (1997). The data were subsequently analyzed using the program WinNonlin to yield the pharmacokinetic parameters listed in Tables 29 to 31 below.
Following the Oligreen assay analysis, plasma aptamer concentrations were determined for the animals dosed with ARC1779 (SEQ ID NO 320) using a validated HPLC-based assay. The HPLC data were analyzed via noncompartmental and 2-compartment analysis using the program WinNonlin.

[2] = tested on: vWF dependent platelet plug formation, human whole blood; test: PFA-100 assay, human whole blood; type: cell-based; settings: for ~IC95 PFA-100 (nM) with citrated human whole blood: minimum concentration that extends closing time to 300 seconds
Excerpt: Another assay of this Example, using the PFA-100 instrument, is an agonist independent but vWF dependent assay that uses the PFA-100 instrument (Harrison et al., Clin. Lab. Haem., v24, p 225-32 (2002)). The PFA-100 simulates the formation of a hemostatic plug under conditions of high shear force in vivo by recording the time required for a platelets to aggregate and block the flow of citrated whole blood through a microscopic aperture in a membrane coated with collagen and either epinephrine or ADP. This activity is von Willebrand factor dependent as high MW vWF multimers bind to immobilized collagen on the membrane and then bind to and activate platelets because of the shear force induced by drawing the blood through the microscopic aperture.
Fresh whole blood was collected from healthy non-steroidal anti-inflammatory drug (NSAID) free cynomolgus macaques. Aptamers were diluted with physiological saline from Aldon (Cat#9420306) in no-additive vacutainer tubes (Cat#366434, Becton Dickenson). Samples were loaded onto collagen/epinephrine test cartridges (Cat#B4170-20A, Dade Behring) which were used in the PFA-100 machine (Dade Behring). Trigger solution (Cat#B4170-50, Dade Behring) was used in the self-test and to pre-wet the test cartridges. O-ring cleaning pads (Cat#B4170-73, Dade Behring) were used in the self-test and in the O-ring cleaning process.
A self-test, which included an O-ring cleaning process, was always run on the PFA-100 machine before running any samples to ensure proper function of the machine.
During the entire experiment, the tubes of whole blood were gently inverted every five minutes to prevent settling.
In order to assay the titration of aptamer in whole blood, the aptamer was added to no-additive vacutainer tubes and diluted to the desired concentrations (ex: 0 nM, 1 nM to 1000 nM) using physiological saline such that the final volume was […]. When the PFA-100 was ready to run the next set of samples, 1940 μl of whole blood was added to the tube containing a concentration of aptamer. This tube was gently inverted three times to thoroughly mix the aptamer and blood. Samples were always run in duplicate on the PFA-100 machine. 800 μl of this blood mixture was loaded into the collagen/epinephrine test cartridges. The test cartridges were loaded onto the PFA-100 machine. The time of occlusion of the aperture was measured by the PFA-100, with a maximal time of 300 seconds. We estimate the IC95 in this assay to be the minimum concentration of aptamer that extends the closing time to 300 seconds.

[3] = not given; remark: listed apart in the source
[4] = target: T1, human vWF A1 domain (SEQ ID NO 5) (Homo sapiens, UniProt P04275, T1381A); test: dot blot KD determination, human vWF A1 domain
T1 sequence (P04275 with tags, fused parts or gaps T1381A): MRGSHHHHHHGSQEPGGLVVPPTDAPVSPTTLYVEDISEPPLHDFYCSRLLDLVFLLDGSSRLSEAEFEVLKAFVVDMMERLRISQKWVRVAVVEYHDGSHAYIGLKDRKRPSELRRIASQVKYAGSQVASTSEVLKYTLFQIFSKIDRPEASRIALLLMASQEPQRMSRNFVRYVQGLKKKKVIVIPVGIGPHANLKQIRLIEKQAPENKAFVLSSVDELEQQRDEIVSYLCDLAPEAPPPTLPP
Method: For KD determination, aptamers transcripts were purified on 10% denaturing polyacrylamide gels, 5′ end labeled with γ-^32P ATP.
For KD determination, aptamers were purified on denaturing polyacrylamide gels and 5′-end labeled with γ-^32P ATP. A 6 point protein titration of human vWF A1 domain (SEQ ID NO 5) was used in the dot blot assay (333 nM, 100 nM, 33 nM, 10 nM, 3 nM, 0 nM) in 1×DPBS plus 0.1 mg/mL BSA at room temperature for 30 minutes. KD values were calculated by fitting the equation y=(max/(1+K/protein))+yint using KaleidaGraph (KaleidaGraph v. 3.51, Synergy Software).
KD values were calculated by fitting the equation y=(max/(1+K/protein))+yint using KaleidaGraph (KaleidaGraph v. 3.51, Synergy Software).
All minimer sequences were transcribed, gel-purified on 15% denaturing polyacrylamide gels, 5-^32 end-labeled with γ^32P ATP, and then desalted using two Centri-Spin 10 columns (Princeton Separations Cat. #CS-101, Adelphia, N.J.). For KD determination, minimer transcripts were tested for direct binding to full length human vWF (SEQ ID NO 7), human vWF A1 domain (SEQ ID NO 5), and rabbit vWF A1 domain (SEQ ID NO 6) using an 8 point protein titration from 0-300 nM (3 fold dilutions) in 1× Dulbecco's PBS containing 0.1 mg/mL BSA (in a final volume of 50 uL) for 30 minutes at room temperature and then applied to a nitrocellulose and nylon filter sandwich in a dot blot apparatus (Schleicher and Schuell, Keene, N.H.). KD values were calculated by fitting the equation y=(max/(1+K/protein))+yint using KaleidaGraph (KaleidaGraph v. 3.51, Synergy Software).
All minimer DNA sequences were chemically synthesized, 5-^32P end-labeled with γ-^32P ATP, and then desalted using two Centri-Spin 10 columns (Princeton Separations, Cat. #CS-101, Adelphia, N.J.). […] KD values were calculated by fitting the equation y=(max/(1+K/protein))+yint using KaleidaGraph (KaleidaGraph v. 3.51, Synergy Software).

[5] = target: T1, human vWF A1 domain (SEQ ID NO 5); test: 3-point dot blot screen, human vWF A1 domain; type: binding; settings: 100 nM human vWF A1 domain
How it was run: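 Values are ratios of aptamer fraction retained on nitrocellulose with 100 nM vWF A1 domain (human or rabbit) versus a no-protein control. Unique clones from rounds 9 and 12 pools were transcribed, desalted and 5'-32P labeled before this three-point dot blot screen.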

[6] = 3 mg/kg IV, monkeys, Oligreen assay, noncompartmental, individual animals 2101, 2103, 2104
[7] = 3 mg/kg IV, monkeys, Oligreen assay, noncompartmental, mean of 3 animals
[8] = cynomolgus monkey, in vivo, iv, 3 mg/kg
[9] = read-out: Human A1 KD, rRdY aptamers, 6 point protein titration
[10] = rRdY aptamers, ratio of fraction bound with target to without

Question: With “PEG20K-NH2-mGmCmGmUdGdCdAmGmUmGmCmCmUmUmCmGmGmCdCmG-s-TmGdCdGdGTmGmCdCmUdCdCmGmUdCmAmCmGmC-3T [ARC1779]” as the molecule, how does the “distribution half-life (t1/2α)” value ([1]; 3 mg/kg IV, HPLC-based assay) read?
Answer: 1.4 h

Question: What about the “elimination half-life (t1/2β)” value ([1]; 3 mg/kg IV, HPLC-based assay) of the same molecule?
Answer: 12.9

Question: What about the “distribution phase α-half-life” value ([1]; 3 mg/kg IV, Oligreen assay) of the same molecule?
Answer: ~2 h

Question: What about the AUClast [1, 6] of the same molecule?
Answer: 309.245 µg·h/mL and 336.59 µg·h/mL and 235.503 µg·h/mL

Question: What about the Cmax [1, 6] of the same molecule?
Answer: 69.065 µg/mL and 65.717 µg/mL and 70.344 µg/mL

Question: And the MRTlast [1, 6]?
Answer: 5.27 h and 4.66 h and 2.69 h

Question: And the Tmax [1, 6]?
Answer: 0.25 hr (2×) and 0.50 hr

Question: And the “AUClast, Mean” value [1, 7]?
Answer: 293.779 µg·h/mL

Question: And the “Cmax, Mean” value [1, 7]?
Answer: 68.375 µg/mL

Question: What about the “MRTlast, Mean” value [1, 7] of the same molecule?
Answer: 4.21 h

Question: And the “Tmax, Mean” value [1, 7]?
Answer: 0.33 h

Question: What about the concentration-time profile ([1]; in words, 3 mg/kg IV, HPLC method) of the same molecule?
Answer: biphasic

Question: And the pharmacokinetic profile ([1]; in words, 3 mg/kg IV, mean concentration-time profile, OliGreen assay)?
Answer: mainly monophasic

Question: What about the “~IC95 PFA-100 (nM) with citrated human whole blood” value [2] of the same molecule?
Answer: ~100 nM

Question: What does the source list for “dGdGdCdGTdGdCdAdGTdGdCdCTTdCdGdGdCdCdGTdGdCdGdGTdGdCdCTdCdCdGTdCdAdCdGdCdC-3T (DNA GGCGTGCAGTGCCTTCGGCCGTGCGGTGCCTCCGTCACGCC; DNA, [invdT] at 3' end, backbone and methylation of C not given here) [ARC1172, ARC1115 with 3'-inverted dT]”?
Answer: T½ Human plasma: 17 h; T½ Rat plasma [3]: 3 h; ~IC95 PFA-100 (nM) with citrated human whole blood [2]: ~100 nM

Question: With “mGmCmGmUdGdCdAmGmUmGmCmCmUmUmCmGmGmCdCmG-s-TmGdCdGdGTmGmCdCmUdCdCmGmUdCmAmCmGmC-3T (GCGUGCAGUGCCUUCGGCCGTGCGGTGCCUCCGUCACGC; sugars from the 5' end mmmmdddmmmmmmmmmmmdmdmddddmmdmddmmdmmmm, [invdT] at 3' end, backbone not given here) [ARC1368]” as the molecule, how does the “AUC0-last, Mean” value [1, 8] read?
Answer: 25224 ng·h/mL

Question: And the “MRTlast, Mean” value [1, 8]?
Answer: 4.48 h

Question: And the distribution phase [1, 8]?
Answer: rapid distribution phase

Question: What about the pharmacokinetic profile [1, 8] of the same molecule?
Answer: mainly monophasic

Question: And the “T½ Human plasma” value?
Answer: 63 h

Question: And the “T½ Rat plasma” value [3]?
Answer: 21 h

Question: What about the “~IC95 PFA-100 (nM) with citrated human whole blood” value [2] of the same molecule?
Answer: ~100 nM

Question: And the “potency in PFA-100 assay” value ([2]; in words, human whole blood)?
Answer: potency comparable to ReoPrO™

B1: AMX205.F7: rRdY aptamer clone (nucleic acid)
chain: rGrGrArGdCrGdCrAdCdTdCrArGdCdCrAdCrAdCrGrAdCrAdTdTrGrGdCrGrGrGdTdTrGdTrArAdTdTrAdCdCrAdCrGdCrAdTrGrGdCdTrGdTdTdTrGdTdTdTdCrGrAdCdCdTdCdTdCdTrGdCdTrArGdC
Question: For B1, which Kd [4, 9] is on record?
Answer: 1.5 nM

Question: What about the “Screen- Human/No Protein” value [5, 10] of the same molecule?
Answer: 3.13

B2: AMX205.H10: rRdY aptamer clone (nucleic acid)
chain: rGrGrArGdCrGdCrAdCdTdCrArGdCdCrAdCdTrGdTdTrGdCdCrGrAdCrGrGdTrGrAdTrGdTrAdTdTrArAdCrGdCrGrGrGdCrArAdCrGdTdTrGrGdTrGdTdTdTdCrGrAdCdCdTdCdTdCdTrGdCdTrArGdC
Question: For B2, which Kd [4, 9] is on record?
Answer: 397 nM

Question: And the “Screen- Human/No Protein” value [5, 10]?
Answer: 1.88

B3: AMX201.C8: rRfY aptamer clone (nucleic acid)
chain: rGrGrArGfCrGfCrAfCfUfCrArGfCfCrAfCfCfCfUfCrGfCrArArGfCrAfUfUfUfUrArArGrArAfUrGrAfCfUfUrGfUrGfCfCrGfCfUrGrGfCfUrGfUfUfUfUfCrGrAfCfCfUfCfUfCfUrGfCfUrArGfC
Question: Which Kd ([4]; read-out: human A1 KD, rRfY aptamers, 8 point titration of human vWF A1 domain) does the source give for B3 here?
Answer: 0.2 nM

Question: What about the “Screen- Human/No Protein” value ([5]; rRfY aptamers, ratio of fraction bound with target to fraction bound without target) of the same molecule?
Answer: 2.47

B4: AMX206.D8: rRdY aptamer clone (nucleic acid)
chain: rGrGrArGdCrGdCrAdCdTdCrArGdCdCrAdCrGrAdCrGrGdTrGrAdTrGrGrAdTdTrArGdCrGdCrGrGdTrGrGrAdTdCdTdTrArAdCrGdTrGdCrGrArGdTdTdTdCrGrAdCdCdTdCdTdCdTrGdCdTrArGdC
Question: What does the source list for B4?
Answer: Kd [4, 9]: 370 nM; Screen- Human/No Protein [5, 10]: 2.80

B5: AMX203.G9: rRdY aptamer clone (nucleic acid)
chain: rGrGrArGdCrGdCrAdCdTdCrArGdCdCrAdCrGrGrGrGdTrGrGrGdTrArGrAdCrGrGdCrGrGrGdTrAdTrGdTrGrGdCdTrGrGdTrGdTdCrGrArArGrGrGdTdTdTdCrGrAdCdCdTdCdTdCdTrGdCdTrArGdC
Question: For B5, which Kd [4, 9] is on record?
Answer: 1.3 nM

Question: What about the “Screen- Human/No Protein” value [5, 10] of the same molecule?
Answer: 1.65
